B1: GST–KHC(815-955) (domain or fragment)
chain: not shown
notes: 3C protease site between GST and KHC (pMW-GST); source: E. coli BL21(DE3), purified (glutathione–Sepharose beads)
B2: SKIP(1-310) (domain or fragment, UniProt Q8IWE5 1-310, looked up)
chain: MEPGEVKDRILENISLSVKKLQSYFAACEDEIPAIRNHDKVLQRLCEHLDHALLYGLQDLSSGYWVLVVHFTRREAIKQIEVLQHVATNLGRSRAWLYLALNENSLESYLRLFQENLGLLHKYYVKNALVCSHDHLTLFLTLVSGLEFIRFELDLDAPYLDLAPYMPDYYKPQYLLDFEDRLPSSVHGSDSLSLNSFNSVTSTNLEWDDSAIAPSSEDYDFGDVFPAVPSVPSTDWEDGDLTDTVSGPRSTASDLTSSKASTRSPTQRQNPFNEEPAETVSSSDTTPVHTTSQEKEEAQALDPPDACTEL
notes: SKIP (PLEKHM2), residues 1-310; also called SKIP(1-310) with GST removed by 3C protease; source: E. coli, purified as a GST fusion, GST cleaved with 3C protease
B3: GST–KHC(815-917) (domain or fragment)
chain: not shown
notes: source: E. coli BL21(DE3), purified (glutathione–Sepharose beads)
B4: GST–KHC(876-917) (domain or fragment)
chain: not shown
notes: as for B3

Key:
Settings in all cases: both partners purified
SKIP(1-310) [1] = target: B2; assay: pull-down; GST–KHC(815-955) (0.5 nmol) on glutathione beads incubated with increasing concentrations of SKIP(1-310) in solution (up to 3.5 μM); SDS-PAGE, Coomassie, densitometry; one-site specific binding model with Hill slope; non-equilibrium, value to be interpreted with caution
GST–KHC(815-955) = target: B1; assay: as above
SKIP(1-310) [2] = target: B2; assay: pull-down; GST–KHC truncations (0.5 nmol) on glutathione–Sepharose beads incubated with 300 μl of 1.2 μM SKIP(1-310) for 2 h at 4°C; 25 mM HEPES pH 7.5, 150 mM NaCl, 5 mM β-mercaptoethanol; Coomassie-stained SDS-PAGE

Chain of GST–KHC(815-955) (P56536 815-955): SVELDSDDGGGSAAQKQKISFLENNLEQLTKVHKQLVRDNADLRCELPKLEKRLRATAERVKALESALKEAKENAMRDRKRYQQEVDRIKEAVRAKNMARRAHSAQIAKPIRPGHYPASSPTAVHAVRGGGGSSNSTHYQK

Row | Binder | binding result (SKIP(1-310) [2]) | other results
1 | B1 |  | Kd (SKIP(1-310) [1]): ~1500 nM
2 | B2 |  | stoichiometry N (GST–KHC(815-955)): 1
3 | B3 | binds | 
4 | B4 | binds | 

Source: article PMC5450233, “SKIP controls lysosome positioning using a composite kinesin-1 heavy and light chain-binding domain” (Journal of Cell Science, 2017)
